From PMC10699557, “A recombinant approach for stapled peptide discovery yields inhibitors of the RAD51 recombinase” (Chemical Science, 2023)

Target: HumRadA22
Experiment: fluorescence polarisation; competition: displacement of a fluorescently-labelled BRC4 repeat from HumRadA22; KD calculated from IC50; single titrations with three technical replicates at each point; mock (linear) samples with 500 uM TCEP

Kd: 39 nM
Binder: VNSSAFSGFCTASGKKLNVSCEALQKAVKLFSDIENIS (modifications not checked) [GB1-SP7-His8, mock-stapled (linear)]
